In US12655208 (PARAGON THERAPEUTICS, dated 2026):
Where a chain is given by its changes, count along the chain named.

T1: Recombinant Human IL-23 (human, UniProt Q9NPF7 20-189; P29460 23-328)
T1 construct: Recombinant human IL-23; the p40 subunit is added from general knowledge of the heterodimer; also called hIL-23
T1 sequence (looked up) 1: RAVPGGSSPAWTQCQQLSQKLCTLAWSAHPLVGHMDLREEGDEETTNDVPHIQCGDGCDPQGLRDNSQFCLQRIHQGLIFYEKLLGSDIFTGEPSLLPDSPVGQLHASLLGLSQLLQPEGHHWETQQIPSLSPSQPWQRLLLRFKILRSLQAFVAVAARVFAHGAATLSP
T1 sequence (looked up) 2: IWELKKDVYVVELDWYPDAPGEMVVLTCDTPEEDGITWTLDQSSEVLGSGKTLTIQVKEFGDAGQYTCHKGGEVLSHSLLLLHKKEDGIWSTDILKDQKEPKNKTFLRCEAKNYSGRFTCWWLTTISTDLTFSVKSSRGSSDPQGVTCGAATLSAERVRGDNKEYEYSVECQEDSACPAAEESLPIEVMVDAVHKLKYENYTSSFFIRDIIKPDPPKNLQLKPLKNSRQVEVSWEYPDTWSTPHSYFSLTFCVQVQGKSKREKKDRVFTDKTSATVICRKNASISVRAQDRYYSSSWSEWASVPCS

B1: Clone MAb002 (antibody, human IgG1, kappa, L234A L235A, V domains shown)
VH: EVQLLESGGGLVQPGGSLRLSCAASGYTFTDQTIHWVRQAPGKGLEWIGYIYPRDDSPKYNENFKGRATLSADNSKNTAYLQMNSLRAEDTAVYYCAIPDRSGYAWFIYWGQGTTVTVSS
VL: EIVMTQSPATLSVSPGERATLSCKASRDVAIAVAWYQQKPGQAPRLLLFWASTRHTGIPARFSGSGSRTEFTLTISSLQSEDFAVYYCHQYSSYPFTFGGGTKVEIKR
notes: Described as an extended half-life humanized IgG1 monoclonal antibody
B2: Reference Antibody 1 (antibody, human IgG1, kappa, L234A L235A, V domains shown)
VH: QVQLVQSGAEVKKPGSSVKVSCKASGYTFTDQTIHWMRQAPGQGLEWIGYIYPRDDSPKYNENFKGKVTITADKSTSTAYMELSSLRSEDTAVYYCAIPDRSGYAWFIYWGQGTLVTVSS
VL: DIQMTQSPSSLSASVGDRVTITCKASRDVAIAVAWYQQKPGKVPKLLIYWASTRHTGVPSRFSGSGSRTDFTLTISSLQPEDVADYFCHQYSSYPFTFGSGTKLEIKR
notes: Human IgG1 with LALA; also called parental anti-human IL-23p19 antibody
B3: Clone MAb001 (antibody, human IgG1, kappa, L234A L235A, V domains shown)
VH: B2 VH with D31T, I34L, D56G, P58T, I108Q, Y109H
VL: B2 VL
B4: Clone MAb004 (antibody, human IgG1, V domains shown)
VH: B2 VH with D31A, I34M, D56G, P58T, Y109V
VL: EIVMTQSPATLSVSPGERATLSCKASRDVAIAVAWYQQKPGQAPRLLLFWASTRHTGIPARFSGSGSRTEFTLTISSLQSEDFAVYYCHQYSSYPFTFGGGTKVEIK
notes: Tested in full antibody format; The printed constant part is human IgG1 with LALA/YTE
B5: Clone MAb003 (antibody, V domains shown)
VH: B2 VH with D31S, I34M, S57Y, E62D, Y109H
VL: B2 VL

molecular target: T1, Recombinant Human IL-23; assay: SPR (Biacore 8K), mAb captured on anti-human IgG, hIL-23 as analyte, 25 °C
Description: Binding affinities (K_D) of antibodies to human IL-23 (generated as described in Examples 1-3) were determined through surface plasmon resonance (SPR) using a BIA-CORE™ 8K SPR system (Cytiva). […] Anti-IL23 mAb constructs (diluted to 2 µg/mL) were captured onto flow cell 2 (active) for 60 sec at a flow rate of 10 µL/min. Recombinant Human IL-23 was prepared at concentrations of 0, 1.23, 3.7, 11.11, 33.33, 100 nM and injected over flow cell 1 (reference) and flow cell 2 (active) for 180 sec at a flow rate of 50 µL/min. Samples were injected in a multi-cycle manner over freshly captured mAb, by regenerating the capture surfaces with injection of 10 mM glycine, pH 1.5 for 30 sec at a flow rate of 30 µL/min. A 1:1 kinetic binding model was utilized to determine the apparent association (ka) and dissociation rate constants (kd). Their ratio provides the apparent equilibrium dissociation constant or affinity constant (K_D=kd/ka).

Binder | koff [s⁻¹] | kon [M⁻¹ s⁻¹]
B1 | < 1e-06 | 266000
B2 | < 1e-06 | 167000
B3 | < 1e-06 | 151000
B4 | < 1e-06 | 247000
B5 | < 1e-06 | 164000

molecular target: T1, Recombinant Human IL-23; assay: cell-based or functional assay

Binder | IC50, inhibition of STAT3 activity and phosphorylation [nM]
B1 | < 1

molecular target: T1, Recombinant Human IL-23; assay: cell-based or functional assay; remark: another data set of the same source

Binder | Relative IC50, inhibition of IL-23-induced STAT3 activation (luciferase reporter, HEK 293F IL-23R+/IL-12Rβ1+)
B1 | 0.64 relative to Reference Antibody 1
B2 | 1 relative to Reference Antibody 1
B3 | 0.612 relative to Reference Antibody 1
B4 | 0.409 relative to Reference Antibody 1
B5 | 0.868 relative to Reference Antibody 1

molecular target: T1, Recombinant Human IL-23; assay: cell-based or functional assay; remark: another data set of the same source

Binder | Relative IC50, inhibition of IL-23-induced phosphorylation of STAT3 in DB cells (pSTAT3 ELISA)
B2 | 1 relative to Reference Antibody 1
B3 | 0.573 relative to Reference Antibody 1
B5 | 0.799 relative to Reference Antibody 1
